Tests used:
[1] = target: E2-CPP (Fam-labelled octaarginine cell-penetrating peptide with two EIAALEK units at its N-terminus); settings: scale: LC3-II/actin ratio
[2] = target: E3-CPP (Fam-labelled octaarginine cell-penetrating peptide with three EIAALEK units at its N-terminus); settings: scale: LC3-II/actin ratio
[3] = target: E3-CPP (Fam-labelled octaarginine cell-penetrating peptide with three EIAALEK units at its N-terminus); assay: other fluorescence titration; En-CPP (Fam) fixed at 50 nM, AIP-Kn (Tmr) added to Tmr/Fam ratios 0-2.0; PBS pH 7.0, 25 °C; excitation 495 nm, Fam fluorescence at 525 nm quenched by FRET to Tmr; Kd by fit to equation (1), with the saturation intensity Fs taken from AIP-K4/E4-CPP
[4] = target: E4-CPP (Fam-labelled octaarginine cell-penetrating peptide with four EIAALEK units at its N-terminus); settings: scale: LC3-II/actin ratio
[5] = target: E4-CPP (Fam-labelled octaarginine cell-penetrating peptide with four EIAALEK units at its N-terminus); assay: other fluorescence titration; En-CPP (Fam) fixed at 50 nM, AIP-Kn (Tmr) added to Tmr/Fam ratios 0-2.0; PBS pH 7.0, 25 °C; excitation 495 nm, Fam fluorescence at 525 nm quenched by FRET to Tmr; Kd by fit to equation (1), with the saturation intensity Fs taken from AIP-K4/E4-CPP
[6] = test system: HeLa cells; assay: Intracellular delivery of K/E hybrids by confocal laser microscopy; type: cell-based; settings: 10 μM equimolar AIP-Kn/En-CPP mixture, 1 h, 37 °C, conclusion from Fam/Tmr signals
Procedure: HeLa cells were cultured in DMEM supplemented with 10% heat-inactivated FBS in a 5% CO2 incubator at 37 °C. The HeLa cell line has been stocked and propagated in Dr. Masaaki Miyazawa’s laboratory.
AIP-Kn and En-CPP (n = 2, 3, and 4) were dissolved in DMSO at 10 mM each to make a stock peptide solution. The stock solution was diluted to the desired concentration using Opti-MEM. Equal volumes of the diluted AIP-Kn and En-CPP were mixed in a 1.5 mL tube for 1 h with rotation at room temperature to generate hybrids. For single-component controls (AIP-Kn or En-CPP only), equal volumes of the diluted AIP-Kn or En-CPP and Opti-MEM with DMSO, which was added instead of the stock peptide solution, were mixed in a 1.5 mL tube, and the mixture was then treated in a manner similar to that for the hybrid formation. […]
One day before peptide treatment, 1 × 10^5 cells in 2 mL of HeLa cells were seeded on a glass-bottomed dish (Matsunami Glass, Osaka, Japan) and cultured in a 5% CO2 incubator at 37 °C. […] After washing the cells, 2 mL of PBS was added and fluorescence signals from the cells were observed using a confocal laser microscope with a Plan Apo 60× oil-immersion DIC H objective (CLMS; C2si Ready; Nikon, Tokyo, Japan). Data were analyzed using NIS-Elements Advanced research software (Nikon).

E4-CPP (Fam-labelled octaarginine cell-penetrating peptide with four EIAALEK units at its N-terminus), sequence (peptide, as listed by the source): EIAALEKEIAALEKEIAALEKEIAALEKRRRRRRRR
E3-CPP (Fam-labelled octaarginine cell-penetrating peptide with three EIAALEK units at its N-terminus), sequence (peptide, as listed by the source): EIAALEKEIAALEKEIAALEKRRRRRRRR
E2-CPP (Fam-labelled octaarginine cell-penetrating peptide with two EIAALEK units at its N-terminus), sequence (peptide, as listed by the source): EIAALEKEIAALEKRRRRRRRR

AIP-K2 (Tmr-labelled autophagy-inducing peptide with two KIAALKE units at its C-terminus)
autophagy induction in HeLa cells, LC3-II/actin ratio by immunoblot, 10 μM, 3 h, relative to AIP-K3/E3-CPP [1]: 0.08

AIP-K3 (Tmr-labelled autophagy-inducing peptide with three KIAALKE units at its C-terminus)
autophagy induction in HeLa cells, LC3-II/actin ratio by immunoblot, 10 μM, 3 h, the reference of the ratio [2]: 1
Kd [3]: 20 nM
stoichiometry N [3]: 1

AIP-K4 (Tmr-labelled autophagy-inducing peptide with four KIAALKE units at its C-terminus)
autophagy induction in HeLa cells, LC3-II/actin ratio by immunoblot, 10 μM, 3 h, relative to AIP-K3/E3-CPP [4]: 0.59
Kd [5]: 2 nM
stoichiometry N [5]: 1

Fam-(EIAALEK)2-RRRRRRRR [E2-CPP, octaarginine modified with (EIAALEK)2 at its N-terminus, labeled with fluorescein]
intracellular delivery (translocation into cells) [6]: alone translocates across the plasma membrane
